From IntAct's records for PubMed 12615979

B1: Serine/threonine-protein kinase plo1 (Schizosaccharomyces pombe (strain ATCC 38366 / 972)), P50528 (parent)
chain: MASVAIKEPKTAITPKKKSKASRLCFTPPTNLHNNKKNIFYTRYDCIGEGGFARCFRVKDNYGNIYAAKVIAKRSLQNDKTKLKLFGEIKVHQSMSHPNIVGFIDCFEDSTNIYLILELCEHKSLMELLRKRKQLTEPEVRYLMMQILGALKYMHKKRVIHRDLKLGNIMLDESNNVKIGDFGLAALLMDDEERKMTICGTPNYIAPEILFNSKEGHSFEVDLWSAGVVMYALLIGKPPFQDKEVKTIYRKIKANSYSFPSNVDISAEAKDLISSLLTHDPSIRPSIDDIVDHEFFHTGYMASTLPDEILHSMPIWPSSQSKSSFQRNLDFVASASGVGFGNSAGVEKNKPYALRTDEVDNDRILPSVLSPRDRVNPVMKIGPETKPVPSKLSTALHAARKSTDGSLGSRVKVLREESQSFVPTKSAVTEQVEPIQLIRSLSANTVSRLSKVGNMKSDIWISVKKTALKIGMALEAHTHALTSEDADSEPVLFITKWVDYSNKYGLGYQLSDESVGVHFNDDTSLLFSADEEVVEYALHPKDTEIKPYIYPASKVPESIRSKLQLLKHFKSYMGQNLSKAVQDESFEKPKNSTSNTMLFMQHYLRTRQAIMFRLSNGIFQFNFLDHRKVVISSTARKIIVLDKERERVELPLQEASAFSEDLRSRLKYIRETLESWASKMEVS
partner: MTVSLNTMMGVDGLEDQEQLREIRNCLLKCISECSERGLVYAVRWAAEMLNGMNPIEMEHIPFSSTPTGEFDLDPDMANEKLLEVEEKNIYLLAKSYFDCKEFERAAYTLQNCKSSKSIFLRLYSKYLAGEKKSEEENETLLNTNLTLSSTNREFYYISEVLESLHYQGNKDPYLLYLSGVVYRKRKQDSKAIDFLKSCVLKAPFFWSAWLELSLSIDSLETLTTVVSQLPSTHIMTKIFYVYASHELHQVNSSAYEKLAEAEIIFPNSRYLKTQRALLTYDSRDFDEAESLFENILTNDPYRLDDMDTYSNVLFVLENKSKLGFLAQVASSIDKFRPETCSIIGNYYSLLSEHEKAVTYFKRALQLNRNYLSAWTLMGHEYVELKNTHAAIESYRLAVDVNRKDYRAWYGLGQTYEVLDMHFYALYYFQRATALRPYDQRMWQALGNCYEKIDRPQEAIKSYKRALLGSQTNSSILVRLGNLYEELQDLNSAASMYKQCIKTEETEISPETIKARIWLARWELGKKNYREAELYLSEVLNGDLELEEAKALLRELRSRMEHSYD
B2: Serine/threonine-protein kinase plo1 (Schizosaccharomyces pombe (strain ATCC 38366 / 972)), P50528 (parent)
chain: B1 chain
partner: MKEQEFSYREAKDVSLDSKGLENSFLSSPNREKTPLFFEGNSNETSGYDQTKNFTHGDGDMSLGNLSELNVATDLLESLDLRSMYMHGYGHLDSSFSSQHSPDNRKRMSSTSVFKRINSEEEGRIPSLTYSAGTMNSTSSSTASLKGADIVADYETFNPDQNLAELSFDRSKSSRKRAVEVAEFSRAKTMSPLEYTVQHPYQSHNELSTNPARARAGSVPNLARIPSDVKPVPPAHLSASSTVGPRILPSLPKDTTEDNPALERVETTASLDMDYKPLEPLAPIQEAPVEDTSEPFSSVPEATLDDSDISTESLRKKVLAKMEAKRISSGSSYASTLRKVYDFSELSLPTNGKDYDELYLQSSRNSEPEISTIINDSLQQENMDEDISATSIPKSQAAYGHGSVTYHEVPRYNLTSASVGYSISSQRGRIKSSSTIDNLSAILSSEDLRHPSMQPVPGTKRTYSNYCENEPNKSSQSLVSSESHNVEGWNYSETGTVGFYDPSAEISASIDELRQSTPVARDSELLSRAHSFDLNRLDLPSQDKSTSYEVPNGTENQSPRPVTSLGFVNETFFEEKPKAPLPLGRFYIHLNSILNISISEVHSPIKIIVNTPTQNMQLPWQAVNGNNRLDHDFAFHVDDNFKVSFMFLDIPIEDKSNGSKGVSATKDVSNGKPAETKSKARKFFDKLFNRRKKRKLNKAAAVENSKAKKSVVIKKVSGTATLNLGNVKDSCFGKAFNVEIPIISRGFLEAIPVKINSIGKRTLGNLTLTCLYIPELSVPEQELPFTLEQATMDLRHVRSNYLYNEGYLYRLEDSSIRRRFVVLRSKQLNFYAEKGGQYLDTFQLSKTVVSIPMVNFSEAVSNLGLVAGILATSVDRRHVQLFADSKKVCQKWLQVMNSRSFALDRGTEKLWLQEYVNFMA
B3: Serine/threonine-protein kinase plo1 (Schizosaccharomyces pombe (strain ATCC 38366 / 972)), P50528 (parent)
chain: B1 chain
partner: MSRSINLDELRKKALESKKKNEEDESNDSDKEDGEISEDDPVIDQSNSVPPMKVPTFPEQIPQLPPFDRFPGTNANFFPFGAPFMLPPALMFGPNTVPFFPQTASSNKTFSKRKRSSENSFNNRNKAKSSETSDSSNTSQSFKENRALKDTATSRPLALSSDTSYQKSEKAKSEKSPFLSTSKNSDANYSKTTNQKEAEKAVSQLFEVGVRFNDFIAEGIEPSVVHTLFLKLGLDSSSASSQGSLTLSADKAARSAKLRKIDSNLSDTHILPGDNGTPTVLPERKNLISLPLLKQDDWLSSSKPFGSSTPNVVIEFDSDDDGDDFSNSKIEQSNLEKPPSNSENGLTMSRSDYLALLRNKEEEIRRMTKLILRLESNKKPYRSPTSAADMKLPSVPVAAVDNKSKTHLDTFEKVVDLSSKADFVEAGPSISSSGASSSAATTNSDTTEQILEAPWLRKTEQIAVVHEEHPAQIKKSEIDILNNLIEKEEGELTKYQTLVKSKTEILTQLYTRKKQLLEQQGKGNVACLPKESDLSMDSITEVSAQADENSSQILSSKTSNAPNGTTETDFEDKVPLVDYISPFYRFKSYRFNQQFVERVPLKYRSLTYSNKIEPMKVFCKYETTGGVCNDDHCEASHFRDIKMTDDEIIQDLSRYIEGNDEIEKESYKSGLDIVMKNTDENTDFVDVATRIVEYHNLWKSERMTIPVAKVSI
B4: Serine/threonine-protein kinase plo1 (Schizosaccharomyces pombe (strain ATCC 38366 / 972)), P50528 (parent)
chain: B1 chain
partner: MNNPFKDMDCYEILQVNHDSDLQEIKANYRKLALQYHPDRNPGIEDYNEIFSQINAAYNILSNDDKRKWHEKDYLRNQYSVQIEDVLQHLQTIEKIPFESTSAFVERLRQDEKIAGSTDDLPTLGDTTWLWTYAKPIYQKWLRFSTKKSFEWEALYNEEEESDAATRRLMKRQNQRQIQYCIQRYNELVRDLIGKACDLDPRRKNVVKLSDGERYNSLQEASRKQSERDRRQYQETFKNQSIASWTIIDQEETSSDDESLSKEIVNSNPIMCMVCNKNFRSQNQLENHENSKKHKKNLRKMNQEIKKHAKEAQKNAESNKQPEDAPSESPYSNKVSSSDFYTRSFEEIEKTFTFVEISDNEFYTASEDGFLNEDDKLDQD

Variants of: B1
Details: with apc8_schpo cut23, O94556

| Variant | effect of a mutation on the interaction |
| --- | --- |
| F493L | decreasing interaction |
| V533A | decreasing interaction |
| L565F | decreasing interaction |
| R605P | decreasing interaction |

Variants of: B2
Details: with bud4_schpo mid1, P78953

| Variant | effect of a mutation on the interaction |
| --- | --- |
| V498A | decreasing interaction |
| V533A | decreasing interaction |

Variants of: B3
Details: with red1_schpo red1, Q9UTR8

| Variant | effect of a mutation on the interaction |
| --- | --- |
| V498A | decreasing interaction |

Variants of: B4
Details: with epr1_schpo epr1, O14213

| Variant | effect of a mutation on the interaction |
| --- | --- |
| K251E | disrupting interaction |
| I252T | disrupting interaction |
| S256P | disrupting interaction |
| F493L | disrupting interaction |
| V498A | decreasing interaction |
| V533A | decreasing interaction |
